Reference: the supplement of paper PMC9170038

Tested on: MS2 coat protein
Assay: apparent KD of MS2 coat protein; higher = weaker reporter binding
Conditions: Eterna round: R107
Summary of the method: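 Illumina sequencing clusters were used for on-chip transcription of designed RNA switches. Titration with SNAP-549-labelled MS2 coat protein followed, in twofold steps from 0.7 or 1.5 nM to 3 µM in 100 mM Tris-HCl pH 7.5, 80 mM KCl, 4 mM MgCl2, without or with constant ligand. Apparent KD is each design's median of fits to normalised cluster binding curves.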

[1] = input ligand: theophylline 20 uM
[2] = input ligand: theophylline 2 mM
[3] = input ligand: tryptophan 2.4 mM

| Sequence | apparent KD of MS2 coat protein (input ligand: arginine 13.2 mM) | apparent KD of MS2 coat protein (input ligand: none) | apparent KD of MS2 coat protein [1] | apparent KD of MS2 coat protein [2] | apparent KD of MS2 coat protein [3] |
| --- | --- | --- | --- | --- | --- |
| AAAAUCCUACCUGAGGAUCACCCUGGUGAAGGAGCGCCCGAAAGGGCAGGUAGGUCGCACCUGAGGAUCACCCUGGUAAACCUAA [ArgEX 24 #DoubleMS2 #OpenEnded] | 31.6 nM | 51.4 nM | 40.3 nM | 44.9 nM | 46.3 nM |
| GUCAGUGACAGAAGGAGCGACAUGAGGAUCACCCAUGUCUCCCGUUAUGGGAGUUCCUUAGGUCAGGUAGGUCGCUGUCACUGAC [#1 Exclusion - Arginine B Attempt #30 (Inspired by Omei)] | 227 nM | 215 nM | 137 nM | 284 nM | 194 nM |
| AGAUUCGACACGGCCGCCACUCGUGCCGGAUUACCGAGUGUCGAACAUGAGGAUCACCCAUGUACGAGGACCGGGUGUUGAGUCU [XTryp B #17] | 35.1 nM | – | 53.9 nM | 48.1 nM | – |
| AUUUAUUAGACGGCCGCCACUUGAAAGAGACCUCAUAAAUGGGAACAUGAGGAUCACCCAUGUAAGAGGACCGGGUCUAGUAGAU [TryptB-ms2@45] | 55.2 nM | 567 nM | 497 nM | 1320 nM | 610 nM |
| UUCUACGACGAUCUGGGAAAACCAGAUCGACGAGGACCGGUACGGCCGCCACUCGUGUUUCUUUAACAUGAGGAUCACCCAUGUA [#12 Tryptophan A Same State] | 23.6 nM | – | 28 nM | 27.8 nM | – |
| AAUAAUAUCCUCAUGUGAGUCGUACCAUAACGAGGACCGGUACGGCCGCCACUCGAACAUGAGGAUCACCCAUGUAGGUAUGAUA [M'-T'-T-MS2-T'' - Design 7] | 50.6 nM | – | 120 nM | 345 nM | – |
| AACGAUUAAUCGGCCGCCACUCACAUGAGGAUCACCCAUGUUGUUCUUCCAGGUGGUUCUGUUCCGAGGACCGGGAUUCCGUCCU [theeternabot_exclusion_MS2_Trp_B_42] | 41.8 nM | – | 70.6 nM | 70.7 nM | – |
| CGGGUUCGGGCGGCCGCCACUAUGAUUAGGUGUGGGUGUGUUGUGUUACAUGAGGAUCACCCAUGUAGGACCGGGUUUGGGCUUG [Sturgeon] | 33.4 nM | 52.6 nM | 84.5 nM | 28.3 nM | 57.4 nM |
| CACGAAAGAUCGGCCGCCACUAUUUGAUGUGUUCUUUCACAUGAGGAUCACCCAUGUUCUUAUUAUAGGACCGGGAUUGAGCGUG [ETB #3] | 73.9 nM | – | 141 nM | 190 nM | – |
| CCUGCGUUUCUUUUCUUUCGCAGGAAUGAUACCAGUAGGGAAACCUACCCUUGGCAGCAUGGGACAUGAGGAUCACCCAUGUUAU [SSThA NP+V+V2 #3] | 167 nM | – | 243 nM | – | 300 nM |
| GGUGUAAUUGACUCUUUGUUUUAUUUGUAACGAGGACCGGUACGGCCGCCACUCGAUAUUCACAUGAGGAUCACCCAUGUUAGCU [JR_ExcTryptoA_Sub006] | 19.1 nM | – | 22.5 nM | 24.3 nM | – |
| AAUAACAUGAGGAUCACCCAUGUAAAAGAUACCAGAGUGAUGAUCCUCCCUUGGCAGCUUAAAACGCUAUUGGAAACAAUAGCGA [Mat - Same State Theophlline A - Mod of Eli - D5] | 48.8 nM | – | 179 nM | – | 74 nM |
| GCUGUAAGUGCAGAUACCAGCAAGUGAUAUUUCAUAUGACAUGAGGAUCACCCAUGUAACUGCCCUUGGCAGCUGCACUUACAGC [SSTHB #10] | 114 nM | – | 122 nM | – | 241 nM |
| ACGUAAUGCAGAAGGAGCGUCUUAUUAAUACAUGAGGAUCACCCAUGUUAUAUUUAUGGUAGACAGGUAGGUCGCUGAAGUACGA [JR_SSArginiB_Sub008] | 8.86 nM | 11.8 nM | 17.3 nM | 13.2 nM | 10.7 nM |
| UCGCUCUGGGUGAAUCCCGGAGAUGUGGAAGGAGCGGACGAAAGUCCAGGUAGGUCGCCAUCGAACAUGAGGAUCACCCAUGUAC [Same State - Arginine A (Freestyle 25)] | 13.3 nM | 88.8 nM | 338 nM | 60.5 nM | 21.8 nM |
| GAGCUGAUGUAGAGUGGAUAUCCUUGAGAUACCAGUACAGAAAUGUACCCUUGGCAGCUCUUCUUUACAUGAGGAUCACCCAUGU [Ex Theophylline A 24] | 12.8 nM | – | 14.3 nM | – | 12.5 nM |
| GACCCAUGAGUUGCAAAAGCUCAUGGGUCGCGAGGACCGGUACGGCCGCCACUCGGCUGUACAUGAGGAUCACCCAUGUCAGGGU [#1 Same State - Tryptophan A Attempt #26 (HarryS)] | 54.4 nM | – | 615 nM | 845 nM | – |
| GGACUAACCAGAAGGAGCGGCGCGCAGAAACUGCAAAUUCCUCCGCACGAGGAUCACCCGUGUCAGGUAGGUCGCUGGUUAGUCG [ArgBX 28] | 14.2 nM | 14.2 nM | 17.9 nM | 16.6 nM | 17.5 nM |
| UGUAUGUGAUUUGAUACCAGUUCUGCUGGUAAAACAUGAGGAUCACCCAUGUUACUUUGGGACCCUUGGCAGCAAAUCGCAUACU [SSTheo B #27] | 90 nM | – | 119 nM | – | 202 nM |

| Sequence | apparent KD of MS2 coat protein (input ligand: arginine 13.2 mM) | apparent KD of MS2 coat protein (input ligand: none) | apparent KD of MS2 coat protein [1] | apparent KD of MS2 coat protein [2] | apparent KD of MS2 coat protein [3] |
| --- | --- | --- | --- | --- | --- |
| UAUCCACAUGAGGAUCACCCAUGUAGGGAAGGAGCGGUGAUUUCACCAGGUAGGUCGCCUUGCUGAGGGUAGCCGGUGGAAUCGU [Exclusion - Arginine A (Freestyle 32)] | 24.4 nM | 19.7 nM | 22.4 nM | 9.15 nM | 10.9 nM |
| CCUAUGCAGUCGGCCGCCACUGAACAUGAGGAUCACCCAUGUAUAUAAAGAUCCUGAUAUAAUAACAGGACCGGGACUGUAUAGG [Ex Tryptophan B 10] | 39.2 nM | – | 73.4 nM | 58.1 nM | – |
| UGACAUUGCUCAGAUACCAGACUUGAGGAACACCCAAGUGCCAACAAGUAUAUAAUAAAAGUCCCUUGGCAGCUGAGCAAUGUCU [TheoBX 19 #MS2Left #AlternativeMS2 #Theo2] | 42.8 nM | 47.8 nM | 105 nM | 318 nM | 45.3 nM |
| GGCACCAGGAGAAGGAGCGUGAAGACAUGAGGAUCACCCAUGUAGAGGCCCGGACAGGGUUCGCAGGUAGGUCGCUCCUGGUGCC [#1 Same State - Arginine B Attempt #10 (HarryS)] | 20.4 nM | 8.29 nM | 245 nM | 122 nM | 47.2 nM |
| GCUGCAGCUACGGCCGCCACUGUUACGUGAGACAUGAGGAUCACCCAUGUUGAUGUUUUACAGAAUAGGACCGGGUAGUUGUAGU [E 1.1] | 8.84 nM | – | 11.3 nM | 9.87 nM | – |
| GCAUAGUAAAAUGAUACCAGAGUCAAAACAGACAUGAGGAUCACCCAUGUGCAUAUACAACUCCCUUGGCAGCAUUAAAACGGGA [theeternabot_sameState_MS2_Theo_B_28] | 14.2 nM | – | 18.7 nM | – | 18.2 nM |
| CAGGUGCAGUCAGAUACCAGAUCUGCACAUGAGGAUCACCCAUGUGUAAUGAGUUCAAAGAUCCCUUGGCAGCUGUGUGAUCCGA [Onbidibe] | 81.1 nM | – | 210 nM | – | 96.3 nM |
| GGGCCCGGGCGCGAGCCCGGGCCCAUUGAUACCAGUGAAUGUGUACGCCCUUGGCAGCGAAUCCUAACAUGAGGAUCACCCAUGU [5.D] | 31.4 nM | – | 76.7 nM | – | 35.2 nM |
| AUGGUCGACGAUCUGCGAAAAGCAGAUCGACGAGGACCGGUACGGCCGCCACUCGUGUUUAUUUAACAUGAGGAUCACCCAUGUA [#14Tryptophan A Same State] | 70.6 nM | – | 123 nM | 142 nM | – |
| AAACGCUAUGCGGCCGCCACUAAGGUUGGCGUCUAUGUCGUUUAAGACAUGAGGAUCACCCAUGUUAGGACCGGGCAUGUCCGCG [theeternabot_exclusion_MS2_Trp_B_25] | 19.1 nM | – | 22.9 nM | 22.4 nM | – |
| UAGACGGCCGGAAGGAGCGGUACAUGAGGAUCACCCAUGUACCUCUGGGCAUCCGUAGUGUGCCAGGUAGGUCGCCGGUUGCGGG [Tebecela] | 12.6 nM | 11.6 nM | 12.5 nM | 11.4 nM | 13.7 nM |
| GUGCGGUCUGAUGAUACCAGAUGUGGUGGGAACAUGAGGAUCACCCAUGUUGUGAGGCAGGUCCCUUGGCAGCAUGAGUGAGCUU [TheoB-ms2@32-2] | 12.4 nM | 119 nM | 229 nM | 156 nM | 72.6 nM |
| GCUAGUGGCAGAAGGAGCGAGGCGACAUACGGGUACAUGAGGAUCACCCAUGUGGUGUGUCCUCAGGUAGGUCGCUGCCACUAGC [SSAB NP+V+V2 #12] | 134 nM | 74.7 nM | 152 nM | 145 nM | 521 nM |
| UACAUGAGGAUCACCCAUGUGGCGGAUGAUACCAGUAUGGUGACAUACCCUUGGCAGCAUGCUAUGAGGAUCACCCAUGUGUGCA [EThA NP+V+V2 #11 DOUBLE] | 56.3 nM | – | 84.9 nM | – | 70.7 nM |
| CUACAUUUGUAGAAACCGGUCAACAUUAUUCGAGGACCGGUACGGCCGCCACUCGUAUAUUUUUAUACAUGAGGAUCACCCAUGU [Tryptophan A 7] | 14.4 nM | – | 14.4 nM | 13 nM | – |
| GGACUAACCAGAAGGAGCGGCACAGCAGAAACUGCAAAUCCUCCGCACGAGGAUCACCCGUGUCAGGUAGGUCGCUGGUUAGUCG [ArgBX 28] | 33.5 nM | 37.1 nM | 55.4 nM | 49.4 nM | 38.4 nM |
| UCUCACAUGAGGAUCACCCAUGUUAAGGCCCGAGGACCGGUACGGCCGCCACUCGUUGGAAGCCGGUAACGUACGAAUCUUCCGU [theeternabot_sameState_MS2_Trp_A_18] | 16.2 nM | – | 26.9 nM | 22.9 nM | – |
| UCGUGUAAAACGGAUACCAGUGAGAAGGAUACAUGAGGAUCACCCAUGUGAGUUGAUCCACACCCUUGGCAGCUGUAUAUAUCUA [ozomullin] | 105 nM | – | 185 nM | – | 122 nM |
